Measurements: paper doi:10.1101/2020.12.31.424863 (bioRxiv, 2020)

T1: Smc6 (subunit of the budding yeast Smc5/6 holo-complex) (budding yeast, UniProt Q12749 1-1114)
T1 sequence: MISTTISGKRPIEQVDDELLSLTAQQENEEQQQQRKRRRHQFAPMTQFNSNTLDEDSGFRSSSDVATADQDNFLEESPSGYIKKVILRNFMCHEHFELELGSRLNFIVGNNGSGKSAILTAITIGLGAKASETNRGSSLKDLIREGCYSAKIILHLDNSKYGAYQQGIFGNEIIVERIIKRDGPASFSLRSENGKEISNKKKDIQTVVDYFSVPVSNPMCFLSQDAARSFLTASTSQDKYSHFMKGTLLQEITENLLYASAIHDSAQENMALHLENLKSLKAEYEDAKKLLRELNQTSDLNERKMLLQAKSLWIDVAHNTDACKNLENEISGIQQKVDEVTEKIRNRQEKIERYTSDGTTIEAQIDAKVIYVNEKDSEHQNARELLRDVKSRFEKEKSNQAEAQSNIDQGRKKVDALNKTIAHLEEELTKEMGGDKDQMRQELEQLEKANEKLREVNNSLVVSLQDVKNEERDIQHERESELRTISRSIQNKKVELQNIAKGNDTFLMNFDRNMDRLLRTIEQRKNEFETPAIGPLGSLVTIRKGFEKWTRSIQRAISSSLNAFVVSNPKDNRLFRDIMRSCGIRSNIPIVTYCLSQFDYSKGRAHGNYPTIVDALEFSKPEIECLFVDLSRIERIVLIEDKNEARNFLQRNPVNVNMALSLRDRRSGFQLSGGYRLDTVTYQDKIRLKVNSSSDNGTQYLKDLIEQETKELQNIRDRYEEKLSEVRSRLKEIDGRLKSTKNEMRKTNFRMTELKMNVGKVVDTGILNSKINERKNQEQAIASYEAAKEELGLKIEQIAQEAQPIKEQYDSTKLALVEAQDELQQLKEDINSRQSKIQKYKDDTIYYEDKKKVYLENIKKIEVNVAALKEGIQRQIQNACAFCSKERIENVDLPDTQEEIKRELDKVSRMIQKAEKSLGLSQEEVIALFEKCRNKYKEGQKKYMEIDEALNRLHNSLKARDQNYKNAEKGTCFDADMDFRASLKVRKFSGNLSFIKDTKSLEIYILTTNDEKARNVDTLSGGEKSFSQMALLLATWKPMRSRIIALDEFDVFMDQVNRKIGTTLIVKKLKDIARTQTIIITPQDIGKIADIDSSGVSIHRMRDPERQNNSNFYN

B1: Nse6 (subunit of the budding yeast Smc5/6 holo-complex) (natural protein)
chain: MGSVNSSPNEEFETVPDSQISGFDSPLIPTSVGSYFRDDDDDEKVHPNFISDPENDSLNSDEEFSSLENSDLNLSGAKAESGDDFDPILKRTIISKRKAPSNNEDEEIVKTPRKLVNYVPLKIFNLGDSFDDTITTTVAKLQDLKKEILDSPRSNKSIVITSNTVAKSELQKSIKFSGSIPEIYLDVVTKETISDKYKDWHFISKNCHYEQLMDLEMKDTAYSFLFGSSRSQGKVPEFVHLKCPSITNLLVLFGVNQEKCNSLKINYEKKENSRYDNLCTIFPVNKMLKFLMYFYSDDDNDDVREFFLKAFICLILDRKVFNAMESDHRLCFKVLELFNEAHFINSYFEIVDKNDFFLHYRLLQIFPHLQSALLRRRFSEKQGRTETIQQNIIKEFNEFFDCKNYKNLLYFILTMYGSKFIPFGPKCQVTEYFKDCILDISNETTNDVEISILKGILNLFSKIR
B2: Nse5 (subunit of the budding yeast Smc5/6 holo-complex) (natural protein)
chain: MDGALINSVLYVSPRNGAHYFVELTEKHLLAFEMLNSMCLLENYDHVLLFLECQFGKSHNLAVIPFDIILVLFTLSTLSEYYKEPILRANDPYNTSRETLSRRALKLLQKYLAILKEFDSEQYNLYDLELLRCQFFLAIDTLTPKKQKWGFDRFRRTKSESGVTYRQNASVDPELDQAKTFKNPYRSYISCLEQRNTILGNRLLNLKLNEPGEFINMILWTLSNSLQESTPLFLSSHEIWMPLLEILIDLFSCRQDYFIQHEVAQNVSKSLFVQRLSESPLAVFFESLNTRNFANRFSEYVFLNCDYKLPSDNYATPVHPVYNGENTIVDTYIPTIKCSPLYKSQKSLALRRKLIGSCFKLLLRVPDGHRLITPRIVADDVIQGISRTLASFNDILQFKKFFMTENLSQESYFIPLLAEGTLSEILKDTQECVVILTLVENLSDGVSFCNEVIGLVKSKCFAFTEQCSQASYEEAVLNIEKCDVCLLVLLRYLLHLIGTEAILDAKEQLEMLHAIEKNDSGRRQWAKALNLGNDPPLLYPIVSQMFGVHDKSVIIE
B3: Smc5 (subunit of the budding yeast Smc5/6 holo-complex) (natural protein)
chain: MTSLIDLGRYVERTHHGEDTEPRSKRVKIAKPDLSSFQPGSIIKIRLQDFVTYTLTEFNLSPSLNMIIGPNGSGKSTFVCAVCLGLAGKPEYIGRSKKVEDFIKNGQDVSKIEITLKNSPNVTDIEYIDARDETIKITRIITRSKRRSDYLINDYQVSESVVKTLVAQLNIQLDNLCQFLSQERVEEFARLKSVKLLVETIRSIDASLLDVLDELRELQGNEQSLQKDLDFKKAKIVHLRQESDKLRKSVESLRDFQNKKGEIELHSQLLPYVKVKDHKEKLNIYKEEYERAKANLRAILKDKKPFANTKKTLENQVEELTEKCSLKTDEFLKAKEKINEIFEKLNTIRDEVIKKKNQNEYYRGRTKKLQATIISTKEDFLRSQEILAQTHLPEKSVFEDIDIKRKEIINKEGEIRDLISEIDAKANAINHEMRSIQRQAESKTKSLTTTDKIGILNQDQDLKEVRDAVLMVREHPEMKDKILEPPIMTVSAINAQFAAYLAQCVDYNTSKALTVVDSDSYKLFANPILDKFKVNLRELSSADTTPPVPAETVRDLGFEGYLSDFITGDKRVMKMLCQTSKIHTIPVSRRELTPAQIKKLITPRPNGKILFKRIIHGNRLVDIKQSAYGSKQVFPTDVSIKQTNFYQGSIMSNEQKIRIENEIINLKNEYNDRKSTLDALSNQKSGYRHELSELASKNDDINREAHQLNEIRKKYTMRKSTIETLREKLDQLKREARKDVSQKIKDIDDQIQQLLLKQRHLLSKMASSMKSLKNCQKELISTQILQFEAQNMDVSMNDVIGFFNEREADLKSQYEDKKKFVKEMRDTPEFQSWMREIRSYDQDTKEKLNKVAEKYEEEGNFNLSFVQDVLDKLESEIAMVNHDESAVTILDQVTAELRELEHTVPQQSKDLETIKAKLKEDHAVLEPKLDDIVSKISARFARLFNNVGSAGAVRLEKPKDYAEWKIEIMVKFRDNAPLKKLDSHTQSGGERAVSTVLYMIALQEFTSAPFRVVDEINQGMDSRNERIVHKAMVENACAENTSQYFLITPKLLTGLHYHEKMRIHCVMAGSWIPNPSEDPKMIHFGETSNYSFD

Key:
[1] = biological target: B3; assay: cross-linking
[2] = biological target: T1, Smc6 (subunit of the budding yeast …); assay: cross-linking
[3] = biological target: B2; assay: cross-linking
[4] = biological target: T1, Smc6 (subunit of the budding yeast …); assay: negative stain EM
[5] = biological target: B1; assay: cross-linking

binding result [1]	binding result [2]	binding result [3]	binding result [4]	binding result [5]	Binder
binds	binds	binds	–	–	B1
binds	binds	–	–	–	B2
–	–	–	binds	–	B3
binds	binds	–	–	binds	Nse2 SUMO ligase (subunit of the budding yeast Smc5/6 holo-complex) (natural protein) MALNDNPIPKSVPLHPKSGKYFHNLHARDLSNIYQQCYKQIDETINQLVDSTSPSTIGIEEQVADITSTYKLLSTYESESNSFDEHIKDLKKNFKQSSDACPQIDLSTWDKYRTGELTAPKLSELYLNMPTPEPATMVNNTDTLKILKVLPYIWNDPTCVIPDLQNPADEDDLQIEGGKIELTCPITCKPYEAPLISRKCNHVFDRDGIQNYLQGYTTRDCPQAACSQVVSMRDFVRDPIMELRCKIAKMKESQEQDKRSSQAIDVL
